The results in this text go back to article PMC7367873, “Dissecting the sequence determinants for dephosphorylation by the catalytic subunits of phosphatases PP1 and PP2A” (Nature Communications, 2020).

One test deals with GFP-14-3-3β. The test is described as follows: GFP-14-3-3β co-IP with LC-MS/MS, untreated GFP-14-3-3β versus GFP control (14-3-3 interactome). The test is classed as binding, human. The following applies: label-free quantification.
The subject of test [1] is GFP-14-3-3β and its binding proteins. The test is described as follows: GFP-14-3-3β co-IP with LC-MS/MS label-free quantification, untreated versus PP1c-treated. Details: species or system human. As to conditions: label-free quantification.
Setting [2] is: log2 difference, pairwise comparison untreated vs GFP, 3 replicates each.
Where [3] appears, read: log2 difference, pairwise comparison PP1 vs untreated, 3 replicates each.

B1: DPM1 (protein, UniProt O60762 2-260, looked up)
Dolichol-phosphate …: ASLEVSRSPRRSRRELEVRSPRQNKYSVLLPTYNERENLPLIVWLLVKSFSESGINYEIIIIDDGSPDGTRDVAEQLEKIYGSDRILLRPREKKLGLGTAYIHGMKHATGNYIIIMDADLSHHPKFIPEFIRKQKEGNFDIVSGTRYKGNGGVYGWDLKRKIISRGANFLTQILLRPGASDLTGSFRLYRKEVLEKLIEKCVSKGYVFQMEMIVRARQLNYTIGEVPISFVDRVYGESKLGGNEIVSFLKGLLTLFATT
In the case of B1, the “Difference (log2), untreated vs GFP” value in the test on GFP-14-3-3β (untreated vs GFP) is given as 1.004 log2. In addition, in test [1] (PP1 vs untreated), the “Difference (log2), PP1 vs untreated” value came to 0.914 log2.

B2: VDAC2 (protein, UniProt P45880 2-294, looked up)
Non-selective voltage-gated …: ATHGQTCARPMCIPPSYADLGKAARDIFNKGFGFGLVKLDVKTKSCSGVEFSTSGSSNTDTGKVTGTLETKYKWCEYGLTFTEKWNTDNTLGTEIAIEDQICQGLKLTFDTTFSPNTGKKSGKIKSSYKRECINLGCDVDFDFAGPAIHGSAVFGYEGWLAGYQMTFDSAKSKLTRNNFAVGYRTGDFQLHTNVNDGTEFGGSIYQKVCEDLDTSVNLAWTSGTNCTRFGIAAKYQLDPTASISAKVNNSSLIGVGYTQTLRPGVKLTLSALVDGKSINAGGHKVGLALELEA
Turning to B2, the “Difference (log2), untreated vs GFP” value with GFP-14-3-3β (untreated vs GFP) turned out to be 2.092 log2. Further, the “Difference (log2), PP1 vs untreated” value in test [1] (PP1 vs untreated) worked out at 0.9262 log2.

B3: U2SURP (protein, UniProt O15042 2-1029, looked up)
U2 snRNP-associated SURP …: ADKTPGGSQKASSKTRSSDVHSSGSSDAHMDASGPSDSDMPSRTRPKSPRKHNYRNESARESLCDSPHQNLSRPLLENKLKAFSIGKMSTAKRTLSKKEQEELKKKEDEKAAAEIYEEFLAAFEGSDGNKVKTFVRGGVVNAAKEEHETDEKRGKIYKPSSRFADQKNPPNQSSNERPPSLLVIETKKPPLKKGEKEKKKSNLELFKEELKQIQEERDERHKTKGRLSRFEPPQSDSDGQRRSMDAPSRRNRSSGVLDDYAPGSHDVGDPSTTNLYLGNINPQMNEEMLCQEFGRFGPLASVKIMWPRTDEERARERNCGFVAFMNRRDAERALKNLNGKMIMSFEMKLGWGKAVPIPPHPIYIPPSMMEHTLPPPPSGLPFNAQPRERLKNPNAPMLPPPKNKEDFEKTLSQAIVKVVIPTERNLLALIHRMIEFVVREGPMFEAMIMNREINNPMFRFLFENQTPAHVYYRWKLYSILQGDSPTKWRTEDFRMFKNGSFWRPPPLNPYLHGMSEEQETEAFVEEPSKKGALKEEQRDKLEEILRGLTPRKNDIGDAMVFCLNNAEAAEEIVDCITESLSILKTPLPKKIARLYLVSDVLYNSSAKVANASYYRKFFETKLCQIFSDLNATYRTIQGHLQSENFKQRVMTCFRAWEDWAIYPEPFLIKLQNIFLGLVNIIEEKETEDVPDDLDGAPIEEELDGAPLEDVDGIPIDATPIDDLDGVPIKSLDDDLDGVPLDATEDSKKNEPIFKVAPSKWEAVDESELEAQAVTTSKWELFDQHEESEEEENQNQEEESEDEEDTQSSKSEEHHLYSNPIKEEMTESKFSKYSEMSEEKRAKLREIELKVMKFQDELESGKRPKKPGQSFQEQVEHYRDKLLQREKEKELERERERDKKDKEKLESRSKDKKEKDECTPTRKERKRRHSTSPSPSRSSSGRRVKSPSPKSERSERSERSHKESSRSRSSHKDSPRDVSKKAKRSPSGSRTPKRSRRSRSRSPKKSGKKSRSQSRSPHRSHKKSKKNKH
For B3, the “Difference (log2), untreated vs GFP” value with GFP-14-3-3β (untreated vs GFP) is on record as 0.6 log2. The “Difference (log2), PP1 vs untreated” value in test [1] (PP1 vs untreated) was found to be 0.8713 log2.

B4: TOMM22 (protein, UniProt Q9NS69 2-142, looked up)
Mitochondrial import receptor …: AAAVAAAGAGEPQSPDELLPKGDAEKPEEELEEDDDEELDETLSERLWGLTEMFPERVRSAAGATFDLSLFVAQKMYRFSRAALWIGTTSFMILVLPVVFETEKLQMEQQQQLQQRQILLGPNTGLSGGMPGALPSLPGKI
B4: the “Difference (log2), untreated vs GFP” value in the test with GFP-14-3-3β (untreated vs GFP) is -0.3585 log2. The “Difference (log2), PP1 vs untreated” value in test [1] (PP1 vs untreated) amounted to 0.9341 log2.

B5: TMCO1 (protein, UniProt Q9UM00 1-239, looked up)
Calcium load-activated …: MPRKRKCDLRAVRVGLLLGGGGVYGSRFRFTFPGCRALSPWRVRVQRRRCEMSTMFADTLLIVFISVCTALLAEGITWVLVYRTDKYKRLKAEVEKQSKKLEKKKETITESAGRQQKKKIERQEEKLKNNNRDLSMVRMKSMFAIGFCFTALMGMFNSIFDGRVVAKLPFTPLSYIQGLSHRNLLGDDTTDCSFIFLYILCTMSIRQNIQKILGLAPSRAATKQAGGFLGPPPPSGKFS
As for B5, the “Difference (log2), untreated vs GFP” value in the test on GFP-14-3-3β (untreated vs GFP) amounted to 2.261 log2. Moreover, the “Difference (log2), PP1 vs untreated” value in test [1] (PP1 vs untreated) is 0.8935 log2.

B6: RPN2 (protein, UniProt P04844 23-631, looked up)
Dolichyl-diphosphooligosacchar …: LTPTHYLTKHDVERLKASLDRPFTNLESAFYSIVGLSSLGAQVPDAKKACTYIRSNLDPSNVDSLFYAAQASQALSGCEISISNETKDLLLAAVSEDSSVTQIYHAVAALSGFGLPLASQEALSALTARLSKEETVLATVQALQTASHLSQQADLRSIVEEIEDLVARLDELGGVYLQFEEGLETTALFVAATYKLMDHVGTEPSIKEDQVIQLMNAIFSKKNFESLSEAFSVASAAAVLSHNRYHVPVVVVPEGSASDTHEQAILRLQVTNVLSQPLTQATVKLEHAKSVASRATVLQKTSFTPVGDVFELNFMNVKFSSGYYDFLVEVEGDNRYIANTVELRVKISTEVGITNVDLSTVDKDQSIAPKTTRVTYPAKAKGTFIADSHQNFALFFQLVDVNTGAELTPHQTFVRLHNQKTGQEVVFVAEPDNKNVYKFELDTSERKIEFDSASGTYTLYLIIGDATLKNPILWNVADVVIKFPEEEAPSTVLSQNLFTPKQEIQHLFREPEKRPPTVVSNTFTALILSPLLLLFALWIRIGANVSNFTFAPSTIIFHLGHAAMLGLMYVYWTQLNMFQTLKYLAILGSVTFLAGNRMLAQQAVKRTAH
With B6, the “Difference (log2), untreated vs GFP” value in the test on GFP-14-3-3β (setting [2]) is -1.824. For the same molecule, the “Difference (log2), PP1 vs untreated” value in test [1] (setting [3]) is reported as 2.419.

B7: TRIM56 (protein, UniProt Q9BRZ2 1-755, looked up)
E3 ubiquitin-protein ligase …: MVSHGSSPSLLEALSSDFLACKICLEQLRAPKTLPCLHTYCQDCLAQLADGGRVRCPECRETVPVPPEGVASFKTNFFVNGLLDLVKARACGDLRAGKPACALCPLVGGTSTGGPATARCLDCADDLCQACADGHRCTRQTHTHRVVDLVGYRAGWYDEEARERQAAQCPQHPGEALRFLCQPCSQLLCRECRLDPHLDHPCLPLAEAVRARRPGLEGLLAGVDNNLVELEAARRVEKEALARLREQAARVGTQVEEAAEGVLRALLAQKQEVLGQLRAHVEAAEEAARERLAELEGREQVARAAAAFARRVLSLGREAEILSLEGAIAQRLRQLQGCPWAPGPAPCLLPQLELHPGLLDKNCHLLRLSFEEQQPQKDGGKDGAGTQGGEESQSRREDEPKTERQGGVQPQAGDGAQTPKEEKAQTTREEGAQTLEEDRAQTPHEDGGPQPHRGGRPNKKKKFKGRLKSISREPSPALGPNLDGSGLLPRPIFYCSFPTRMPGDKRSPRITGLCPFGPREILVADEQNRALKRFSLNGDYKGTVPVPEGCSPCSVAALQSAVAFSASARLYLINPNGEVQWRRALSLSQASHAVAALPSGDRVAVSVAGHVEVYNMEGSLATRFIPGGKASRGLRALVFLTTSPQGHFVGSDWQQNSVVICDGLGQVVGEYKGPGLHGCQPGSVSVDKKGYIFLTLREVNKVVILDPKGSLLGDFLTAYHGLEKPRVTTMVDGRYLVVSLSNGTIHIFRVRSPDS
In the case of B7, the “Difference (log2), untreated vs GFP” value in the test with GFP-14-3-3β (untreated vs GFP) is given as -0.02313 log2. In addition, the “Difference (log2), PP1 vs untreated” value in test [1] (PP1 vs untreated) is given as 0.8378 log2.

B8: SRPR (protein, UniProt P08240 1-638, looked up)
Signal recognition particle …: MLDFFTIFSKGGLVLWCFQGVSDSCTGPVNALIRSVLLQERGGNNSFTHEALTLKYKLDNQFELVFVVGFQKILTLTYVDKLIDDVHRLFRDKYRTEIQQQSALSLLNGTFDFQNDFLRLLREAEESSKIRAPTTMKKFEDSEKAKKPVRSMIETRGEKPKEKAKNSKKKGAKKEGSDGPLATSKPVPAEKSGLPVGPENGVELSKEELIRRKREEFIQKHGRGMEKSNKSTKSDAPKEKGKKAPRVWELGGCANKEVLDYSTPTTNGTPEAALSEDINLIRGTGSGGQLQDLDCSSSDDEGAAQNSTKPSATKGTLGGMFGMLKGLVGSKSLSREDMESVLDKMRDHLIAKNVAADIAVQLCESVANKLEGKVMGTFSTVTSTVKQALQESLVQILQPQRRVDMLRDIMDAQRRQRPYVVTFCGVNGVGKSTNLAKISFWLLENGFSVLIAACDTFRAGAVEQLRTHTRRLSALHPPEKHGGRTMVQLFEKGYGKDAAGIAMEAIAFARNQGFDVVLVDTAGRMQDNAPLMTALAKLITVNTPDLVLFVGEALVGNEAVDQLVKFNRALADHSMAQTPRLIDGIVLTKFDTIDDKVGAAISMTYITSKPIVFVGTGQTYCDLRSLNAKAVVAALMKA
Take B8: the “Difference (log2), untreated vs GFP” value with GFP-14-3-3β (untreated vs GFP) is recorded as -0.7055 log2. Further, in test [1] (PP1 vs untreated), the “Difference (log2), PP1 vs untreated” value is 0.9083 log2.

B9: SRP68 (protein, UniProt Q9UHB9 1-627, looked up)
Signal recognition particle …: MAAEKQVPGGGGGGGSGGGGGSGGGGSGGGRGAGGEENKENERPSAGSKANKEFGDSLSLEILQIIKESQQQHGLRHGDFQRYRGYCSRRQRRLRKTLNFKMGNRHKFTGKKVTEELLTDNRYLLLVLMDAERAWSYAMQLKQEANTEPRKRFHLLSRLRKAVKHAEELERLCESNRVDAKTKLEAQAYTAYLSGMLRFEHQEWKAAIEAFNKCKTIYEKLASAFTEEQAVLYNQRVEEISPNIRYCAYNIGDQSAINELMQMRLRSGGTEGLLAEKLEALITQTRAKQAATMSEVEWRGRTVPVKIDKVRIFLLGLADNEAAIVQAESEETKERLFESMLSECRDAIQVVREELKPDQKQRDYILEGEPGKVSNLQYLHSYLTYIKLSTAIKRNENMAKGLQRALLQQQPEDDSKRSPRPQDLIRLYDIILQNLVELLQLPGLEEDKAFQKEIGLKTLVFKAYRCFFIAQSYVLVKKWSEALVLYDRVLKYANEVNSDAGAFKNSLKDLPDVQELITQVRSEKCSLQAAAILDANDAHQTETSSSQVKDNKPLVERFETFCLDPSLVTKQANLVHFPPGFQPIPCKPLFFDLALNHVAFPPLEDKLEQKTKSGLTGYIKGIFGFRS
B9: in the test on GFP-14-3-3β (untreated vs GFP), the “Difference (log2), untreated vs GFP” value is reported as 0.06806 log2. In test [1] (PP1 vs untreated), the “Difference (log2), PP1 vs untreated” value is listed as 0.7891 log2.

B10: PGAM5 (protein, UniProt Q96HS1 1-289, looked up)
Serine/threonine-protein …: MAFRQALQLAACGLAGGSAAVLFSAVAVGKPRAGGDAEPRPAEPPAWAGGARPGPGVWDPNWDRREPLSLINVRKRNVESGEEELASKLDHYKAKATRHIFLIRHSQYHVDGSLEKDRTLTPLGREQAELTGLRLASLGLKFNKIVHSSMTRAIETTDIISRHLPGVCKVSTDLLREGAPIEPDPPVSHWKPEAVQYYEDGARIEAAFRNYIHRADARQEEDSYEIFICHANVIRYIVCRALQFPPEGWLRLSLNNGSITHLVIRPNGRVALRTLGDTGFMPPDKITRS
With B10, in the test on GFP-14-3-3β (setting [2]), the “Difference (log2), untreated vs GFP” value is -0.7531. Besides, the “Difference (log2), PP1 vs untreated” value in test [1] (setting [3]) is 2.342.
